{"source": "patent US20120208216A1", "key": {"[1]": {"target": "antibody against the IL-1R receptor (anti-IL1R antibody)", "assay": "sandwich ELISA, Bi- and Dig-M-R10Z8E9 as capture and detection; analyte 25.00 ng/ml in cynomolgus serum"}, "[2]": {"target": "antibody against the IL-6 receptor (anti-IL6R antibody)", "assay": "sandwich ELISA, Bi- and Dig-M-R10Z8E9 as capture and detection; analyte 25.00 ng/ml in cynomolgus serum"}, "[3]": {"target": "antibody against the amyloid β-A4 peptide (anti-Aβ antibody)", "assay": "sandwich ELISA, Bi- and Dig-M-R10Z8E9 as capture and detection; analyte 25.00 ng/ml in cynomolgus serum"}, "[4]": {"target": "antibody against the IL13 receptor α1 protein (anti-IL13Rα1 antibody)", "assay": "sandwich ELISA, Bi- and Dig-M-R10Z8E9 as capture and detection; analyte 25.00 ng/ml in cynomolgus serum"}, "[5]": {"target": "antibody against the IL-1R receptor (anti-IL1R antibody)", "assay": "sandwich ELISA, Bi- and Dig-M-R10Z8E9 as capture and detection; analyte 50.00 ng/ml in cynomolgus serum"}, "[6]": {"target": "antibody against the IL-6 receptor (anti-IL6R antibody)", "assay": "sandwich ELISA, Bi- and Dig-M-R10Z8E9 as capture and detection; analyte 50.00 ng/ml in cynomolgus serum"}, "[7]": {"target": "antibody against the amyloid β-A4 peptide (anti-Aβ antibody)", "assay": "sandwich ELISA, Bi- and Dig-M-R10Z8E9 as capture and detection; analyte 50.00 ng/ml in cynomolgus serum"}, "[8]": {"target": "antibody against the IL13 receptor α1 protein (anti-IL13Rα1 antibody)", "assay": "sandwich ELISA, Bi- and Dig-M-R10Z8E9 as capture and detection; analyte 50.00 ng/ml in cynomolgus serum"}, "[9]": {"target": "antibody against the IL-1R receptor (anti-IL1R antibody)", "assay": "sandwich ELISA, Bi- and Dig-M-R10Z8E9 as capture and detection; analyte 1.56 ng/ml in cynomolgus serum"}, "[10]": {"target": "antibody against the IL-6 receptor (anti-IL6R antibody)", "assay": "sandwich ELISA, Bi- and Dig-M-R10Z8E9 as capture and detection; analyte 1.56 ng/ml in cynomolgus serum"}, "[11]": {"target": "antibody against the amyloid β-A4 peptide (anti-Aβ antibody)", "assay": "sandwich ELISA, Bi- and Dig-M-R10Z8E9 as capture and detection; analyte 1.56 ng/ml in cynomolgus serum"}, "[12]": {"target": "antibody against the IL13 receptor α1 protein (anti-IL13Rα1 antibody)", "assay": "sandwich ELISA, Bi- and Dig-M-R10Z8E9 as capture and detection; analyte 1.56 ng/ml in cynomolgus serum"}, "[13]": {"target": "antibody against the IL-1R receptor (anti-IL1R antibody)", "assay": "sandwich ELISA, Bi- and Dig-M-R10Z8E9 as capture and detection; analyte 3.13 ng/ml in cynomolgus serum"}, "[14]": {"target": "antibody against the IL-6 receptor (anti-IL6R antibody)", "assay": "sandwich ELISA, Bi- and Dig-M-R10Z8E9 as capture and detection; analyte 3.13 ng/ml in cynomolgus serum"}, "[15]": {"target": "antibody against the amyloid β-A4 peptide (anti-Aβ antibody)", "assay": "sandwich ELISA, Bi- and Dig-M-R10Z8E9 as capture and detection; analyte 3.13 ng/ml in cynomolgus serum"}, "[16]": {"target": "antibody against the IL13 receptor α1 protein (anti-IL13Rα1 antibody)", "assay": "sandwich ELISA, Bi- and Dig-M-R10Z8E9 as capture and detection; analyte 3.13 ng/ml in cynomolgus serum"}, "[17]": {"target": "antibody against the IL-1R receptor (anti-IL1R antibody)", "assay": "sandwich ELISA, Bi- and Dig-M-R10Z8E9 as capture and detection; analyte 100.00 ng/ml in cynomolgus serum"}, "[18]": {"target": "antibody against the IL-6 receptor (anti-IL6R antibody)", "assay": "sandwich ELISA, Bi- and Dig-M-R10Z8E9 as capture and detection; analyte 100.00 ng/ml in cynomolgus serum"}, "[19]": {"target": "antibody against the amyloid β-A4 peptide (anti-Aβ antibody)", "assay": "sandwich ELISA, Bi- and Dig-M-R10Z8E9 as capture and detection; analyte 100.00 ng/ml in cynomolgus serum"}, "[20]": {"target": "antibody against the IL13 receptor α1 protein (anti-IL13Rα1 antibody)", "assay": "sandwich ELISA, Bi- and Dig-M-R10Z8E9 as capture and detection; analyte 100.00 ng/ml in cynomolgus serum"}, "[21]": {"target": "marmoset IgG (marmoset serum)", "assay": "SPR (BIAcore T100), mAb captured by anti-mouse Fc, serum 1:100; 1:1 Langmuir, serum IgG assumed 15 mg/ml"}, "[22]": {"target": "chimpanzee immunoglobulin of class G (chimpanzee serum)", "assay": "SPR (BIAcore T100), mAb captured by anti-mouse Fc, serum 1:100; 1:1 Langmuir, serum IgG assumed 15 mg/ml"}, "dog IgG (dog serum) [23]": {"target": "dog IgG (dog serum)", "assay": "SPR (BIAcore T100), mAb captured by anti-mouse Fc, serum 1:100; 1:1 Langmuir, serum IgG assumed 15 mg/ml"}, "[24]": {"target": "human immunoglobulin of class G (human serum)", "assay": "SPR (BIAcore T100), mAb captured by anti-mouse Fc, serum 1:100; 1:1 Langmuir, serum IgG assumed 15 mg/ml"}, "[25]": {"target": "antibody against the IL-1R receptor (anti-IL1R antibody)", "assay": "sandwich ELISA, Bi- and Dig-M-R10Z8E9 as capture and detection; analyte 12.50 ng/ml in cynomolgus serum"}, "[26]": {"target": "antibody against the IL-6 receptor (anti-IL6R antibody)", "assay": "sandwich ELISA, Bi- and Dig-M-R10Z8E9 as capture and detection; analyte 12.50 ng/ml in cynomolgus serum"}, "[27]": {"target": "antibody against the amyloid β-A4 peptide (anti-Aβ antibody)", "assay": "sandwich ELISA, Bi- and Dig-M-R10Z8E9 as capture and detection; analyte 12.50 ng/ml in cynomolgus serum"}, "[28]": {"target": "antibody against the IL13 receptor α1 protein (anti-IL13Rα1 antibody)", "assay": "sandwich ELISA, Bi- and Dig-M-R10Z8E9 as capture and detection; analyte 12.50 ng/ml in cynomolgus serum"}, "[29]": {"target": "antibody against the IL-1R receptor (anti-IL1R antibody)", "assay": "sandwich ELISA, Bi- and Dig-M-R10Z8E9 as capture and detection; 0.00 ng/ml analyte in cynomolgus serum (blank)"}, "[30]": {"target": "antibody against the IL-6 receptor (anti-IL6R antibody)", "assay": "sandwich ELISA, Bi- and Dig-M-R10Z8E9 as capture and detection; 0.00 ng/ml analyte in cynomolgus serum (blank)"}, "[31]": {"target": "antibody against the amyloid β-A4 peptide (anti-Aβ antibody)", "assay": "sandwich ELISA, Bi- and Dig-M-R10Z8E9 as capture and detection; 0.00 ng/ml analyte in cynomolgus serum (blank)"}, "[32]": {"target": "antibody against the IL13 receptor α1 protein (anti-IL13Rα1 antibody)", "assay": "sandwich ELISA, Bi- and Dig-M-R10Z8E9 as capture and detection; 0.00 ng/ml analyte in cynomolgus serum (blank)"}, "[33]": {"target": "antibody against the IL-1R receptor (anti-IL1R antibody)", "assay": "sandwich ELISA, Bi- and Dig-M-R10Z8E9 as capture and detection; analyte 6.25 ng/ml in cynomolgus serum"}, "[34]": {"target": "antibody against the IL-6 receptor (anti-IL6R antibody)", "assay": "sandwich ELISA, Bi- and Dig-M-R10Z8E9 as capture and detection; analyte 6.25 ng/ml in cynomolgus serum"}, "[35]": {"target": "antibody against the amyloid β-A4 peptide (anti-Aβ antibody)", "assay": "sandwich ELISA, Bi- and Dig-M-R10Z8E9 as capture and detection; analyte 6.25 ng/ml in cynomolgus serum"}, "[36]": {"target": "antibody against the IL13 receptor α1 protein (anti-IL13Rα1 antibody)", "assay": "sandwich ELISA, Bi- and Dig-M-R10Z8E9 as capture and detection; analyte 6.25 ng/ml in cynomolgus serum"}, "[37]": {"target": "baboon IgG (baboon serum)", "assay": "SPR (BIAcore T100), mAb captured by anti-mouse Fc, serum 1:100; signal at 80 s"}, "[38]": {"target": "marmoset IgG (marmoset serum)", "assay": "SPR (BIAcore T100), mAb captured by anti-mouse Fc, serum 1:100; signal at 80 s"}, "[39]": {"target": "chimpanzee immunoglobulin of class G (chimpanzee serum)", "assay": "SPR (BIAcore T100), mAb captured by anti-mouse Fc, serum 1:100; signal at 80 s"}, "dog IgG (dog serum) [40]": {"target": "dog IgG (dog serum)", "assay": "SPR (BIAcore T100), mAb captured by anti-mouse Fc, serum 1:100; signal at 80 s"}, "[41]": {"target": "human immunoglobulin of class G (human serum)", "assay": "SPR (BIAcore T100), mAb captured by anti-mouse Fc, serum 1:100; signal at 80 s"}, "[42]": {"target": "Rhesus-monkey IgG (Rhesus-monkey serum)", "assay": "SPR (BIAcore T100), mAb captured by anti-mouse Fc, serum 1:100; signal at 80 s"}, "[43]": {"target": "cynomolgus IgG (cynomolgus serum)", "assay": "SPR (BIAcore T100), mAb captured by anti-mouse Fc, serum 1:100; signal at 80 s"}}, "data": [{"substance": "MAB<h-Fc gamma>M-R10Z8E9 (antibody)", "values": [{"measurement": "OD", "setting": "[1]", "result": 0.98, "unit": "OD"}, {"measurement": "OD", "setting": "[2]", "result": 1.08, "unit": "OD"}, {"measurement": "OD", "setting": "[3]", "result": 1.31, "unit": "OD"}, {"measurement": "OD", "setting": "[4]", "result": 1.23, "unit": "OD"}, {"measurement": "OD", "setting": "[5]", "result": 1.52, "unit": "OD"}, {"measurement": "OD", "setting": "[6]", "result": 1.56, "unit": "OD"}, {"measurement": "OD", "setting": "[7]", "result": 1.71, "unit": "OD"}, {"measurement": "OD", "setting": "[8]", "result": 1.67, "unit": "OD"}, {"measurement": "OD", "setting": "[9]", "result": 0.085, "unit": "OD"}, {"measurement": "OD", "setting": "[10]", "result": 0.105, "unit": "OD"}, {"measurement": "OD", "setting": "[11]", "result": 0.139, "unit": "OD"}, {"measurement": "OD", "setting": "[12]", "result": 0.119, "unit": "OD"}, {"measurement": "OD", "setting": "[13]", "result": 0.153, "unit": "OD"}, {"measurement": "OD", "setting": "[14]", "result": 0.19, "unit": "OD"}, {"measurement": "OD", "setting": "[15]", "result": 0.264, "unit": "OD"}, {"measurement": "OD", "setting": "[16]", "result": 0.226, "unit": "OD"}, {"measurement": "OD", "setting": "[17]", "result": 1.88, "unit": "OD"}, {"measurement": "OD", "setting": "[18]", "result": 1.82, "unit": "OD"}, {"measurement": "OD", "setting": "[19]", "result": 1.93, "unit": "OD"}, {"measurement": "OD", "setting": "[20]", "result": 1.97, "unit": "OD"}, {"measurement": "Kd", "setting": "[21]", "result": 204, "unit": "nM"}, {"measurement": "Kd", "setting": "[22]", "result": 0.221, "unit": "nM"}, {"measurement": "Kd", "setting": "dog IgG (dog serum) [23]", "result": 31.7, "unit": "nM"}, {"measurement": "Kd", "setting": "[24]", "result": 0.177, "unit": "nM"}, {"measurement": "OD", "setting": "[25]", "result": 0.546, "unit": "OD"}, {"measurement": "OD", "setting": "[26]", "result": 0.664, "unit": "OD"}, {"measurement": "OD", "setting": "[27]", "result": 0.881, "unit": "OD"}, {"measurement": "OD", "setting": "[28]", "result": 0.772, "unit": "OD"}, {"measurement": "OD", "setting": "[29]", "result": 0.024, "unit": "OD"}, {"measurement": "OD", "setting": "[30]", "result": 0.024, "unit": "OD"}, {"measurement": "OD", "setting": "[31]", "result": 0.023, "unit": "OD"}, {"measurement": "OD", "setting": "[32]", "result": 0.022, "unit": "OD"}, {"measurement": "OD", "setting": "[33]", "result": 0.276, "unit": "OD"}, {"measurement": "OD", "setting": "[34]", "result": 0.348, "unit": "OD"}, {"measurement": "OD", "setting": "[35]", "result": 0.482, "unit": "OD"}, {"measurement": "OD", "setting": "[36]", "result": 0.408, "unit": "OD"}, {"measurement": "Bound RU", "setting": "[37]", "result": -1.5, "unit": "RU"}, {"measurement": "Bound RU", "setting": "[38]", "result": 18.9, "unit": "RU"}, {"measurement": "Bound RU", "setting": "[39]", "result": 159, "unit": "RU"}, {"measurement": "Bound RU", "setting": "dog IgG (dog serum) [40]", "result": 35.5, "unit": "RU"}, {"measurement": "Bound RU", "setting": "[41]", "result": 151, "unit": "RU"}, {"measurement": "Bound RU", "setting": "[42]", "result": -1.9, "unit": "RU"}, {"measurement": "Bound RU", "setting": "[43]", "result": -1.4, "unit": "RU"}]}]}
